Measured values published in PMC4358012.

T1: CebR-His6 (Streptomyces scabies 87-22, UniProt C9Z452 1-352)
T1 sequence: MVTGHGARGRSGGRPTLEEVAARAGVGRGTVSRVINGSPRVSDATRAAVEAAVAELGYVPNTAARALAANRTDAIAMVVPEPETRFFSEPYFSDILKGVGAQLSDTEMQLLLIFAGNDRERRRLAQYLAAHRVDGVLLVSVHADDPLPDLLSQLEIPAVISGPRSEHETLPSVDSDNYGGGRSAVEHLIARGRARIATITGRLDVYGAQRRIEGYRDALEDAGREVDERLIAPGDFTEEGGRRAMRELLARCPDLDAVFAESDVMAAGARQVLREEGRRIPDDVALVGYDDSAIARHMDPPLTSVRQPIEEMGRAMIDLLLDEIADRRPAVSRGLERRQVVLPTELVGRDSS

B1: cbstxtB probe (dsDNA)
DNA 1: CTCCCCCAGGGGGAGCGCTCCCACTGCGCTGTA
DNA 2: TACAGCGCAGTGGGAGCGCTCCCCCTGGGGGAG
B2: cbstxtR-A probe (dsDNA)
DNA 1: TGTCAATAAGCGGGAGCGCTCCCACAGCGCTCTC
DNA 2: GAGAGCGCTGTGGGAGCGCTCCCGCTTATTGACA

Biological target: T1, CebR-His6
Experiment: EMSA

Binder	binding result
B1	binds
B2	binds
